Results: paper PMC2367712 (Nucleic Acids Research, 2008)

Biological target: the molecule itself
Experiment: cross-linking

B1: Lsr2 of M. tuberculosis, recombinant, His-tagged at the C-terminal (natural protein)
chain: not shown
- stoichiometry N: 2
